{"source": "paper PMC2185574", "about": "(The Journal of Cell Biology, 2000)", "binders": {"B1": {"name": "prenylated His6-tagged Rab3A (natural protein)", "chain": "MASATDSRYGQKESSDQNFDYMFKILIIGNSSVGKTSFLFRYADDSFTPAFVSTVGIDFKVKTIYRNDKRIKLQIWDTAGQERYRTITTAYYRGAMGFILMYDITNEESFNAVQDWSTQIKTYSWDNAQVLLVGNKCDMEDERVVSSERGRQLADHLGFEFFEASAKDNINVKQTFERLVDVICEKMSESLDTADPAVTGAKQGPQLSDQQVPPHQDCAC", "modifications": "prenylated (residues not stated)"}}, "target": "T1, 6xHis-tagged Mrs6p, wild-type (S. cerevisiae, UniProt P32864 1-603)", "T1 sequence": "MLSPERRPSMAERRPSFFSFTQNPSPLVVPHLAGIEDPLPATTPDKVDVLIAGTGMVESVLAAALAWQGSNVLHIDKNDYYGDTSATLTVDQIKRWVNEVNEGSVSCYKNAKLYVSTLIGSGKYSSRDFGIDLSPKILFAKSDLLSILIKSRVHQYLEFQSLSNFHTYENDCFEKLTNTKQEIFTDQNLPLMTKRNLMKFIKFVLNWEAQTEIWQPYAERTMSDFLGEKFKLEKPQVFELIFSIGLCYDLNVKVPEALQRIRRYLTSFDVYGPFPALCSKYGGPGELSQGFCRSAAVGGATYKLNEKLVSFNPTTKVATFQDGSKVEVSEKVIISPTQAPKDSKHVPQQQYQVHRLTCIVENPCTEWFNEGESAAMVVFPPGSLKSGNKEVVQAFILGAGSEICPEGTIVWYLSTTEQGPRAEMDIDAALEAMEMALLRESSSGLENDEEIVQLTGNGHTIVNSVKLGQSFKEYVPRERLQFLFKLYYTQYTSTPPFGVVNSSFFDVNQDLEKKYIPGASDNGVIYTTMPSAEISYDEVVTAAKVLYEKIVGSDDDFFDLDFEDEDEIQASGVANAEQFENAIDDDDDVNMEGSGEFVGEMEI", "assay": "other fluorescence titration"}
{"binder": "B1", "values": [{"measurement": "Kd", "result": 320, "unit": "nM"}]}
